Columns and labels:
HLA-A*01:01 = HLA-A*01:01 (Homo sapiens, UniProt P04439, A114D/A174V/A182V/D101N/D185E/E176A/E190D/L180R/Q94H/R68K/S129P/T187R/V100A/V91M/W191G); test: MHC binding assay (UV-ligand exchange, β2m ELISA); conditions: peptide exchange yield
CD8+ T cells = test: In vitro immunogenicity: T-cell priming with aAPCs loaded with peptide/MHC and anti-CD28, multimer readout; format: cell-based, human
HLA-A*24:02 = HLA-A*24:02 (Homo sapiens, UniProt P04439, D101N/D140Y/D185E/E176V/E190D/F33S/G103R/G107R/I119L/I121M/I306V/K335N/L105A/L180Q/L300P/N151K/N90K/Q86E/Q94H/R106L/R138H/R89G/T104I/T345S/V100E/W191G/Y123F); test: MHC binding assay (UV-ligand exchange, β2m ELISA); conditions: peptide exchange yield, binding to HLA-A*24:02
HLA-B*07:02 = HLA-B*07:02 (Homo sapiens, UniProt P01889); test: MHC binding assay (UV-ligand exchange, β2m ELISA); conditions: peptide exchange yield, binding to HLA-B*07:02

Substance: 1 (RSDPVTLDV; listed as Homo sapiens) [compound 1]
- Peptide exchange (HLA-A*01:01): “+++” (>50 = +++)
- Wells positive [%] (CD8+ T cells; HLA A*01): “++” (20%-49% = ++)

Substance: 6 (VLDLSTNVY; listed as Homo sapiens) [compound 6]
- Peptide exchange (HLA-A*01:01): “+++” (>50 = +++)
- Wells positive [%] (CD8+ T cells; HLA A*01): “++” (20%-49% = ++)

Substance: 20 (STDEITTRY; listed as Homo sapiens) [compound 20]
- Peptide exchange (HLA-A*01:01): “+++” (>50 = +++)
- Wells positive [%] (CD8+ T cells; HLA A*01): “+” (<20% = +)

Substance: 24 (YTHHLFIFY; listed as Homo sapiens) [compound 24]
- Peptide exchange (HLA-A*01:01): “+” (>10% = +)
- Wells positive [%] (CD8+ T cells; HLA A*01): “+” (<20% = +)

Substance: 28 (LTDYINANY; listed as Homo sapiens) [compound 28]
- Peptide exchange (HLA-A*01:01): “+++” (>50 = +++)
- Wells positive [%] (CD8+ T cells; HLA A*01): “+” (<20% = +)

Substance: 31 (VTDLEMPHY; listed as Homo sapiens) [compound 31]
- Peptide exchange (HLA-A*01:01): “++++” (>75% = ++++)
- Wells positive [%] (CD8+ T cells; HLA A*01): “+” (<20% = +)

Substance: 33 (FADKIHLAY; listed as Homo sapiens) [compound 33]
- Peptide exchange (HLA-A*01:01): “++” (>20% = ++)
- Wells positive [%] (CD8+ T cells; HLA A*01): “++” (20%-49% = ++)

Substance: 37 (LTDSFPLKV; listed as Homo sapiens) [compound 37]
- Peptide exchange (HLA-A*01:01): u+++” (>50 = +++)
- Wells positive [%] (CD8+ T cells; HLA A*01): “+++” (50%-69% = +++)

Substance: 113 (VWAKILSAF; listed as Homo sapiens) [compound 113]
- Peptide exchange (HLA-A*24:02): “+++” (>50 = +++)

Substance: 114 (KFLDSNIKF; listed as Homo sapiens) [compound 114]
- Peptide exchange (HLA-A*24:02): “+++” (>50 = +++)

Substance: 115 (YFEEAANFL; listed as Homo sapiens) [compound 115]
- Peptide exchange (HLA-A*24:02): “++” (>20% = ++)

Substance: 116 (LVLDYSKDYNHW; listed as Homo sapiens) [compound 116]
- Peptide exchange (HLA-A*24:02): “+” (>10% = +)

Substance: 117 (NFLPPIIARF; listed as Homo sapiens) [compound 117]
- Peptide exchange (HLA-A*24:02): “++++” (>75% = ++++)

Substance: 118 (TYISKTIAL; listed as Homo sapiens) [compound 118]
- Peptide exchange (HLA-A*24:02): “+++” (>50 = +++)

Substance: 120 (MYAKEFDLL; listed as Homo sapiens) [compound 120]
- Peptide exchange (HLA-A*24:02): “+++” (>50 = +++)

Substance: 121 (SYIEKVRFL; listed as Homo sapiens) [compound 121]
- Peptide exchange (HLA-A*24:02): “+++” (>50 = +++)

Substance: 122 (KLYGMPTDFGF; listed as Homo sapiens) [compound 122]
- Peptide exchange (HLA-A*24:02): “++” (>20% = ++)

Substance: 123 (RQYLAINQI; listed as Homo sapiens) [compound 123]
- Peptide exchange (HLA-A*24:02): “+” (>10% = +)

Substance: 125 (IYGPKYIHPSF; listed as Homo sapiens) [compound 125]
- Peptide exchange (HLA-A*24:02): “++++” (>75% = ++++)

Substance: 126 (TFQDKTLNF; listed as Homo sapiens) [compound 126]
- Peptide exchange (HLA-A*24:02): “+++” (>50 = +++)

Substance: 127 (IFINLSPEF; listed as Homo sapiens) [compound 127]
- Peptide exchange (HLA-A*24:02): “++++” (>75% = ++++)

Substance: 128 (SYTKVEARL; listed as Homo sapiens) [compound 128]
- Peptide exchange (HLA-A*24:02): “+++” (>50 = +++)

Substance: 129 (VFLNQIYTQL; listed as Homo sapiens) [compound 129]
- Peptide exchange (HLA-A*24:02): “++” (>20% = ++)

Substance: 130 (VYGDGHYLTF; listed as Homo sapiens) [compound 130]
- Peptide exchange (HLA-A*24:02): “+++” (>50 = +++)

Substance: 143 (FELPTGAGLQL; listed as Homo sapiens) [compound 143]
- Peptide exchange (HLA-B*07:02): “++” (>20% = ++)

Substance: 144 (IPEPSAQQL; listed as Homo sapiens) [compound 144]
- Peptide exchange (HLA-B*07:02): “++” (>20% = ++)
- Wells positive [%] (CD8+ T cells; HLA B*07): “+” (<20% = +)

Substance: 145 (RVPSYTLIL; listed as Homo sapiens) [compound 145]
- Peptide exchange (HLA-B*07:02): “+++” (>50 = +++)

Substance: 146 (SPGDKRLAA; listed as Homo sapiens) [compound 146]
- Peptide exchange (HLA-B*07:02): “+++” (>50 = +++)
- Wells positive [%] (CD8+ T cells; HLA B*07): “++” (20%-49% = ++)

Substance: 147 (SPIKVPLLL; listed as Homo sapiens) [compound 147]
- Peptide exchange (HLA-B*07:02): “+++” (>50 = +++)

Substance: 148 (VPDGVSKVL; listed as Homo sapiens) [compound 148]
- Peptide exchange (HLA-B*07:02): “++” (>20% = ++)
- Wells positive [%] (CD8+ T cells; HLA B*07): “+++” (50%-69% = +++)

Substance: 149 (YPLTGDTRL; listed as Homo sapiens) [compound 149]
- Peptide exchange (HLA-B*07:02): “++” (>20% = ++)

Substance: 150 (KPSSKALGTSL; listed as Homo sapiens) [compound 150]
- Peptide exchange (HLA-B*07:02): “+++” (>50 = +++)

Substance: 151 (VVHPRTLLL; listed as Homo sapiens) [compound 151]
- Peptide exchange (HLA-B*07:02): “++” (>20% = ++)

Substance: 152 (IPSRLLAIL; listed as Homo sapiens) [compound 152]
- Peptide exchange (HLA-B*07:02): “+++” (>50 = +++)

Substance: 153 (APAAVPSAPA; listed as Homo sapiens) [compound 153]
- Peptide exchange (HLA-B*07:02): “+++” (>50 = +++)

Substance: 154 (GPGTRLSL; listed as Homo sapiens) [compound 154]
- Peptide exchange (HLA-B*07:02): “++” (>20% = ++)

Substance: 155 (FPYPYAERL; listed as Homo sapiens) [compound 155]
- Peptide exchange (HLA-B*07:02): “++” (>20% = ++)
- Wells positive [%] (CD8+ T cells; HLA B*07): “+++” (50%-69% = +++)

Substance: 156 (HPQVVILSL; listed as Homo sapiens) [compound 156]
- Peptide exchange (HLA-B*07:02): “+++” (>50 = +++)
- Wells positive [%] (CD8+ T cells; HLA B*07): “++” (20%-49% = ++)

Substance: 157 (SPSPGKDPTL; listed as Homo sapiens) [compound 157]
- Peptide exchange (HLA-B*07:02): “++” (>20% = ++)

Substance: 158 (VPERGEPEL; listed as Homo sapiens) [compound 158]
- Peptide exchange (HLA-B*07:02): “++” (>20% = ++)

Substance: 159 (FPAHPSLLL; listed as Homo sapiens) [compound 159]
- Peptide exchange (HLA-B*07:02): “++” (>20% = ++)

Substance: 160 (RPAPADSAL; listed as Homo sapiens) [compound 160]
- Peptide exchange (HLA-B*07:02): “+++” (>50 = +++)

Substance: 161 (NPYEGRVEV; listed as Homo sapiens) [compound 161]
- Peptide exchange (HLA-B*07:02): “++” (>20% = ++)

Substance: 162 (MPMISIPRV; listed as Homo sapiens) [compound 162]
- Peptide exchange (HLA-B*07:02): “++” (>20% = ++)

Substance: 163 (RPASSLRP; listed as Homo sapiens) [compound 163]
- Peptide exchange (HLA-B*07:02): “++” (>20% = ++)

Substance: 164 (ISTPSEVSTPL; listed as Homo sapiens) [compound 164]
- Peptide exchange (HLA-B*07:02): “++” (>20% = ++)
- Wells positive [%] (CD8+ T cells; HLA B*07): “+” (<20% = +)

Substance: 165 (TPIAKVSEL; listed as Homo sapiens) [compound 165]
- Peptide exchange (HLA-B*07:02): “+++” (>50 = +++)

Substance: 166 (HDPDVGSNSL; listed as Homo sapiens) [compound 166]
- Peptide exchange (HLA-B*07:02): “++” (>20% = ++)

Substance: 167 (YPSEVEHMF; listed as Homo sapiens) [compound 167]
- Peptide exchange (HLA-B*07:02): “++” (>20% = ++)

Substance: 168 (IPTDKLLVI; listed as Homo sapiens) [compound 168]
- Peptide exchange (HLA-B*07:02): “++” (>20% = ++)

Substance: 169 (FPTEVTPHAF; listed as Homo sapiens) [compound 169]
- Peptide exchange (HLA-B*07:02): “++” (>20% = ++)

Substance: 170 (SPMWHVQQL; listed as Homo sapiens) [compound 170]
- Peptide exchange (HLA-B*07:02): “+++” (>50 = +++)
- Wells positive [%] (CD8+ T cells; HLA B*07): “++++” (>= 70% = ++++)

Substance: 171 (APKLFAVAF; listed as Homo sapiens) [compound 171]
- Peptide exchange (HLA-B*07:02): “+++” (>50 = +++)

Substance: 172 (KPAHYPLIAL; listed as Homo sapiens) [compound 172]
- Peptide exchange (HLA-B*07:02): “+++” (>50 = +++)
- Wells positive [%] (CD8+ T cells; HLA B*07): “+++” (50%-69% = +++)

Substance: 173 (MVPSAGQLALF; listed as Homo sapiens) [compound 173]
- Peptide exchange (HLA-B*07:02): “++” (>20% = ++)

Substance: 174 (VPSLQRLML; listed as Homo sapiens) [compound 174]
- Peptide exchange (HLA-B*07:02): “+++” (>50 = +++)

Substance: 175 (HPIETLVDIF; listed as Homo sapiens) [compound 175]
- Peptide exchange (HLA-B*07:02): “++” (>20% = ++)

Substance: 242 (FSDKELAAY; listed as Homo sapiens) [compound 242]
- Peptide exchange (HLA-A*01:01): “++++” (>75% = ++++)

Substance: 243 (RSPNNFLSY; listed as Homo sapiens) [compound 243]
- Peptide exchange (HLA-A*01:01): “++” (>20% = ++)

Substance: 244 (RSDPVTLNV; listed as Homo sapiens) [compound 244]
- Peptide exchange (HLA-A*01:01): “+++” (>50 = +++)

Substance: 245 (ITEKNSGLY; listed as Homo sapiens) [compound 245]
- Peptide exchange (HLA-A*01:01): “+++” (>50 = +++)
- Wells positive [%] (CD8+ T cells; HLA A*01): “+++” (50%-69% = +++)

Substance: 246 (YSDLHAFYY; listed as Homo sapiens) [compound 246]
- Peptide exchange (HLA-A*01:01): “++++” (>75% = ++++)

Substance: 247 (RSDPGGGGLAY; listed as Homo sapiens) [compound 247]
- Peptide exchange (HLA-A*01:01): “+++” (>50 = +++)
- Wells positive [%] (CD8+ T cells; HLA A*01): “+” (<20% = +)

Substance: 248 (YSHAAGQGTGLY; listed as Homo sapiens) [compound 248]
- Peptide exchange (HLA-A*01:01): “+++” (>50 = +++)

Substance: 255 (LPDGSRVEL; listed as Homo sapiens) [compound 255]
- Peptide exchange (HLA-B*07:02): “++” (>20% = ++)
- Wells positive [%] (CD8+ T cells; HLA B*07): “++++” (>= 70% = ++++)

Substance: 256 (LPALPQQLI; listed as Homo sapiens) [compound 256]
- Peptide exchange (HLA-B*07:02): “+++” (>50 = +++)

Substance: 257 (SPLRGGSSL; listed as Homo sapiens) [compound 257]
- Peptide exchange (HLA-B*07:02): “++” (>20% = ++)

Substance: 258 (APSGTRVVQVL; listed as Homo sapiens) [compound 258]
- Peptide exchange (HLA-B*07:02): “++” (>20% = ++)

Substance: 259 (RPAVGHSGL; listed as Homo sapiens) [compound 259]
- Peptide exchange (HLA-B*07:02): “++” (>20% = ++)

— patent US20200339657A1, “PEPTIDES AND COMBINATION THEREOF FOR USE IN THE IMMUNOTHERAPY AGAINST CANCERS” (Immatics Biotechnologies GmbH, priority 2017, published 2020)
